Experimental data from patent US20230256092A1 (SHIONOGI, published 2023).
Numbering of substitutions follows the chain as printed. Numbers in names are those of the source. Where two headings read alike, the source gives them in different places.

B1: h10A11 (IGKV3-20/IGHV3-15 T94R) (antibody, V domains shown)
VH: EVQLVESGGALVKPGGSLRLSCAASGFTFSTYALYWVRQAPGKGLEWVGRIRSKSNNYATYYADSVKDRFTISRDDSKNTLYLQMNSLKTEDTAVYYCTRARFYYSDYGYAMDYWGQGTLVTVSS
VL: EIVLTQSPGTLSLSPGERATLSCRSSKSLLHSNGNTYLYWYQQKPGQAPRLLIYRMSNLASGIPDRFSGSGSGTDFTLTISRLEPEDFAVYYCMQHLEYPLTFGQGTKVEIKR
B2: h10A11 (IGKV2-40/IGHV3-73) (antibody, V domains shown)
VH: B1 VH with A10G, K13Q, R19K, T28A, S30N, P41S, L81A
VL: DIVMTQTPLSLPVTPGEPASISCRSSKSLLHSNGNTYLYWYLQKPGQSPQLLIYRMSNLASGVPDRFSGSGSGTDFTLKISRVEAEDVGVYYCMQHLEYPLTFGQGTKLEIKR
B3: humanized 10A11 mutant (IGKV3-20 N53Q, G29R/IGHV3-15 T94R) (antibody, V domains shown)
VH: B1 VH
VL: B1 VL with G34R, N58Q
B4: h10A11 (IGKV2-40/IGHV3-15 T94R) (antibody, V domains shown)
VH: B1 VH
VL: B2 VL
B5: humanized 10A11 antibody (light chain variable region: IGKV4-1 N53Q+G29R/heavy chain variable region: IGHV3-15 T94R) (antibody, V domains shown)
VH: B1 VH
VL: DIVMTQSPDSLAVSLGERATINCRSSKSLLHSNRNTYLYWYQQKPGQPPKLLIYRMSQLASGVPDRFSGSGSGTDFTLTISSLQAEDVAVYYCMQHLEYPLTFGQGTKLEIKR
B6: humanized 10A11 mutant (IGKV3-20 N53Q, G29L/IGHV3-15 T94R) (antibody, V domains shown)
VH: B1 VH
VL: B1 VL with G34L, N58Q
B7: h10A11 (IGKV1-16/IGHV3-15 T94R) (antibody, V domains shown)
VH: B1 VH
VL: DIQMTQSPSSLSASVGDRVTITCRSSKSLLHSNGNTYLYWFQQKPGKAPKSLIYRMSNLASGVPSRFSGSGSGTDFTLTISSLQPEDFATYYCMQHLEYPLTFGQGTKLEIKR
B8: h10A11 (IGKV1-39/IGHV3-73) (antibody, V domains shown)
VH: B1 VH with A10G, K13Q, R19K, T28A, S30N, P41S, L81A
VL: B7 VL with F41Y, S51L
B9: h10A11 (IGKV1-39/IGHV3-15 T94R) (antibody, V domains shown)
VH: B1 VH
VL: B7 VL with F41Y, S51L
B10: humanized 10A11 mutant (IGKV3-20 N53Q, N28K/IGHV3-15 T94R) (antibody, V domains shown)
VH: B1 VH
VL: B1 VL with N33K, N58Q
B11: h10A11 (IGKV2-28/IGHV3-73) (antibody, V domains shown)
VH: B1 VH with A10G, K13Q, R19K, T28A, S30N, P41S, L81A
VL: B2 VL with T7S, L109V
B12: 2-7B (antibody, V domains shown)
VH: EVQLVESDGGLVQPGRSLKLSCAASGFTFSDYYMAWVRQAPTKGLEWVATITYDVYSTYYRDSVKGRFTISRDNAKSTLYLQMDSLRSEDTATYYCARHGGDGYNSGNWFAYWGQGTLVTVSS
VL: DIVLTQSPALAVSLGQRATISCRASQSVSISRYNIMHWYQQKPGQQPKLLIYRASNLASGIPARFSGSGSGTDFTLTINPVQADDIATYYCQQSRESPPTFGGGTKLELKR

Experiments:
Assay in all cases: cell-based or functional assay
human CCR8 [1] = biological target: T1, human CCR8 (human, UniProt P51685 1-355)
human CCR8 [2] = biological target: T1, human CCR8; remark: listed apart in the source
human CCR8 [3] = biological target: T1, human CCR8; remark: listed apart in the source

IC50 (nM), Ca2+ influx by 200 nM hCCL1 (human CCR8 [1]) [nM] | IC50 (nM), Ca2+ influx by 200 nM hCCL1 (human CCR8 [2]) [nM] | further results | Binder
0.16 | – | – | B1
0.21 | – | – | B2
– | 0.19 | – | B3
0.3 | – | – | B4
– | 0.12 | – | B5
– | 0.21 | – | B6
0.7 | – | – | B7
0.16 | – | – | B8
0.2 | – | – | B9
– | 0.29 | – | B10
0.2 | – | – | B11
– | – | IC50 (nM), Ca2+ influx by 200 nM hCCL1 (human CCR8 [3]): 0.23 nM | B12
